Results on three molecules are retold here after patent US20240010742A1 (RESEARCH DEVELOPMENT FOUNDATION, published 2024).

Where a chain is given by its changes, count along the chain named.

Assay [1] has as its target T1, FcγRIIaH131 (human, UniProt P12318 36-218, limits assumed, biotinylated (BLI, beads)).
T1 construct: also called FcgRIIaH131
T1 sequence (looked up): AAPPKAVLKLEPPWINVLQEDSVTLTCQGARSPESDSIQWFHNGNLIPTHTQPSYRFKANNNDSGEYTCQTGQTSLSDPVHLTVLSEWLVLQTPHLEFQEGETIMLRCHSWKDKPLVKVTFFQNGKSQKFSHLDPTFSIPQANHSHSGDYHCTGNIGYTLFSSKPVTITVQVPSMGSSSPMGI
As to the kind of experiment: flow cytometry: hexameric Fc on FcγR-coated beads; mean fluorescence intensity.

Assay [2] addresses T2, FcγRIIaR131 (human, UniProt P12318 36-218, limits assumed, biotinylated (BLI, beads)).
T2 construct: also called FcgRIIaR131; 2aR
T2 sequence (looked up): T1 sequence (looked up) with H132R
The assay is described as above.

In assay [3] the target is T3, FcγRIIIaV158 (human, UniProt P08637 17-208, biotinylated (BLI, beads)).
T3 construct: also called FcgRIIIaV158; 3aV
The description is as above.

The target in assay [4] is T4, FcgRIIIbNA2 (human, UniProt O75015 17-200, limits assumed).
T4 construct: also called FcγRIIIb
Described as above.

A further assay concerns the target T5, FcγRIIb (human, UniProt P31994 46-217, limits assumed, biotinylated (BLI, beads)).
T5 construct: Recombinant receptor on biosensors, SPR or beads; also called FcgRIIb; 2b
T5 sequence (looked up): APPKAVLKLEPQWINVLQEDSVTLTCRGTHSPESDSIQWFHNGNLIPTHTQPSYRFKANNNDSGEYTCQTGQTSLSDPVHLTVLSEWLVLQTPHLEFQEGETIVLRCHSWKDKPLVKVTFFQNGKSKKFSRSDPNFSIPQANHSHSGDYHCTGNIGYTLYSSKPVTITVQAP
As to the kind of experiment: flow cytometry: hexameric Fc on FcγR-coated beads; y axis = mean fluorescence intensity. Background: In flow cytometry, cells or beads pass a laser one at a time.

Another assay concerns the target T6, FcγRI (human, UniProt P12314 16-288, limits assumed, biotinylated (BLI, beads)).
T6 construct: Recombinant receptor; also called FcgRI
The description is as above.

Assay [5] deals with T7, FcγRIIb on cells (Raji cells; THP-1 cells) (human, UniProt P31994 43-310).
T7 construct: whole, on cells; also called FcγR2b; FcgR2b
T7 sequence (looked up): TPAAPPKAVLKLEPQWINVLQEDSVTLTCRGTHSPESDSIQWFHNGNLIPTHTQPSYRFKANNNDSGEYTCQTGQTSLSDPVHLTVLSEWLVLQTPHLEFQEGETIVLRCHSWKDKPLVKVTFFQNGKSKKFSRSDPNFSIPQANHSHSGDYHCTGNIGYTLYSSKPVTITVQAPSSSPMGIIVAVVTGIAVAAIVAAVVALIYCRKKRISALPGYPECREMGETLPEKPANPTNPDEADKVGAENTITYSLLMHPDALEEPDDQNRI
As to the kind of experiment: flow cytometry: hexameric Fc on Raji cells (only FcγR2b among Fc receptors), 40 to 0.039 ug/ml; upper panel fluorescence intensity (axis without title), lower panel percent positive; last bar of each group = Ramos cells at 40 ug/ml. As to the method:
Error bars are standard error of the mean of triplicate samples. Statistical analysis was performed by one way ANOVA with Tukey s multiple comparisons test (***P 0.001, ****P 0.0001). […] The cell binding of hexameric Fc was tested with Raji cell which expresses only FcγR2b among Fc receptors (FIG. 13).

For assay [6], the target named is T2, FcγRIIaR131. As to the kind of experiment: flow cytometry: hexameric Fc on FcγR-coated beads; y axis = mean fluorescence intensity.
For assay [7], the target named is T1, FcγRIIaH131. As to the kind of experiment: flow cytometry: hexameric Fc ('Hex 2b18KQS-1') on FcγR-coated beads; mean fluorescence intensity.
Assay [8] addresses T3, FcγRIIIaV158. Described as above.
Assay [9] addresses T4, FcgRIIIbNA2. Described as above.

T4 sequence (O75015 17-200 limits assumed): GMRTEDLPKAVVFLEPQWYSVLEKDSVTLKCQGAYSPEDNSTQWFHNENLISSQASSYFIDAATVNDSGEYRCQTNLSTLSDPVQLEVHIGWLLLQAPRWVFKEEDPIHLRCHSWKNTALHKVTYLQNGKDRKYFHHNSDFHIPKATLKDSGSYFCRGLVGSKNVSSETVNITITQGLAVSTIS
T3 sequence (P08637 17-208 F176V limits assumed): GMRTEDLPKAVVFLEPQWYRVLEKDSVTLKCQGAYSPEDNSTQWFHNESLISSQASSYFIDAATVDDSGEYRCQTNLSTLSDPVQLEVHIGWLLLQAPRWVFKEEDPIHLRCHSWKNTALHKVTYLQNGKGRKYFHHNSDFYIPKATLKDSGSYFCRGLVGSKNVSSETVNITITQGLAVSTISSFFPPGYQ
T6 sequence (P12314 16-288 limits assumed): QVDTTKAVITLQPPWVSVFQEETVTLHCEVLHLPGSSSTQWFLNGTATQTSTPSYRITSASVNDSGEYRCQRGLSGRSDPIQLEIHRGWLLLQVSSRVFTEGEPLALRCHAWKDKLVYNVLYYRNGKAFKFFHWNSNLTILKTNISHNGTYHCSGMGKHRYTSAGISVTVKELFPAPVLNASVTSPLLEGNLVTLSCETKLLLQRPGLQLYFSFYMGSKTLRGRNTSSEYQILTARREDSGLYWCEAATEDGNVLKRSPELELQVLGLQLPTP

B1: Hex 2b18KQS-ST (glycosylated version of Hex 2b18KQS) (Fc fusion)
chain: EPKSCDKTHTCPPCPAPVDFRDPLVFLFPPKPKDTLMISRTPEVTCVVVDVSPEDPEVKFNWYVDGVEVHNAKTKPQEEQYNSTYRVVSVLTVCHQDWLNGKEYKCKVSNKLAPHPIIKTISKAKGQPREPQVYTLPPSRDELTKNQVSLTCLVKGFYPSDIAVEWESNGQPENNYKTTPPVLDSDGSFFLYSKLTVDKSRWQQGNVFSCSVMHEALHNHYTQKSLSLSPGKPTLYNVSLVMSDTAGTCY
notes: Ser298/Thr299 restored (glycosylated); forms a hexamer of Fc; also called glycosylated Hex 2b18KQS-ST Fc; hexameric 2b18KQS-ST Fc
Take B1: the binding result with FcγRIIaH131 [1] is listed as “no binding”; with FcγRIIaR131 [2], “no binding”; in the assay with FcγRIIIaV158 [3] it was “no binding”; in the assay with FcgRIIIbNA2 [4], “no binding”; with FcγRIIb, “binds”; with FcγRI it was “binds”. In addition, the binding result in assay [5] is “binds”.

B2: Hex 2b18K-ST (Fc fusion)
Fc-tailpiece fusion chain: B1 chain with S52D, Q77R, T248N
notes: also called Hex2b218K-ST; glycosylated hexameric construct of Fc variant 2b18K
With B2, the binding result was “no binding” with FcγRIIaH131 [1]; “no binding” in the assay with FcγRIIIaV158 [3]; “no binding” in the assay with FcgRIIIbNA2 [4]; “binds” with FcγRIIaR131 [6]; “binds” with FcγRIIb; “binds” with FcγRI.

B3: Hex 2b18KQS (aglycosylated hexameric Fc) (Fc fusion)
chain: B1 chain with S83G, T84A
notes: forms a hexamer of Fc; also called Hex 2b18KQS Fc; Hex-2bKQS
On to B3, for which the binding result with FcγRIIaH131 [7] is given as “no binding”; with FcγRIIIaV158 [8], “no binding”; in the assay with FcgRIIIbNA2 [9] it was “no binding”; in the assay with FcγRIIaR131 [6], “binds”; with FcγRIIb it was “binds”; in [5], “binds”.
